Results from patent publication US8986682B2, “Method to increase the absorption of unsaturated fatty acids by human infants” (Swedish Orphan Biovitrum AB (publ), priority 2010, dated 2015).
“And” between values parts separate entries of the source, which are not always exact repeats. Equal values may be shown once. Marks after values point to notes of the source that are not given here.

System: preterm infants born before week 32 of gestational age
Assay: Coefficient of fat absorption (CFA), fat balance of food and stool by gas chromatography, studies BVT.BSSL-020/-021
Type: in vivo, human
Settings: PP
Experimental: Patients were randomized to infant formula/pasteurized breast milk supplemented with rhBSSL at a final concentration of 0.15 g/L, or to infant formula/pasteurized breast milk “supplemented” with sterile water for injection (as placebo) for the first 7 days. After a washout period of 2 days, the patient was “crossed over” to the other treatment regimen during a second 7-day treatment period. Collection of feces samples for CFA assessment were performed during the last 3 days (72 hours) of each treatment period.
The collection of feces for the determination of CFA was performed over a period corresponding to the fat, i.e., formula or milk, ingestion during 72 hours toward the end of each treatment period. Diapers supplied to each site were used for feces collection. During the two treatment periods, a carmine red tracer dye was given as a marker together with a meal (approximately at noon) on Day 4 and Day 13, respectively, and collection of stool commenced with the appearance of the first carmine red marker in the stool. The stool containing the first marker was collected and the date and time of the first stool collected was recorded on the CRF. At 72 hours following administration of the first red marker, the second carmine marker was given, and stool collection continued until the second carmine marker appeared. The stool containing the second marker was not collected, but the date and time of the appearance of the second marker was recorded on the CRF. Diapers were weighed before placement and after removal and the difference in weight was recorded on the CRF. The times of each collection and the elapsed duration of the entire collection period was also recorded on the CRF. The use of ointments for the treatment of skin irritation was prohibited during the stool collection period. Diapers were to be changed frequently during the collection period to keep the skin dry. Patients with skin rash severity leading to discontinuation of the stool collection were to be withdrawn from the study. Specific collection methods were provided in a separate laboratory manual. If applicable, vomit from the stool collection periods of both treatment periods was weighed. A small cloth/linen was weighed and placed under the head of each infant. When the cloth/linen was soiled with vomit, it was removed and re-weighed. If an additional cloth was used to remove vomit from the infant, that cloth was also weighed before and after use. The weight of vomit (total weight minus the weight of the cloth/linen) was recorded on the CRF. All other feed losses, e.g., formula or milk left in bottle, were measured and the amount accounted for in the calculation of the volume of formula consumed at each feeding.
Feces samples, the formula (study 020) and the milk aliquots (study 021) were analyzed by a central laboratory. Individual fatty acids, including the long-chain polyunsaturated fatty acids DHA and AA, were quantified in feces and feed by a gas chromatographic method following extraction by the Folch method. In both studies, the Omegawax 250 column (Supelco) was used for separation of the fatty acids. However, due to co-elution of DHA with nervonic acid (C24:1), which was only present in the breast milk, samples from patients of the per-protocol analysis set from study 021 were also analyzed using a SP-2380 column (Supelco) in order to quantify DHA for those samples from study 021. […] Total lipids were calculated as the sum of the individual fatty acids. (See Section 7.5.1). The same analytical principle was used to determine lipids in each of the batches of formula and aliquots of breast milk used in the study. […]

[1] = BVT.BSSL-020 (infant formula), 72-hour collection period
[2] = BVT.BSSL-021 (pasteurized breast milk)

B1: rhBSSL: recombinant human bile-salt-stimulated lipase, SEQ ID. NO. 1, expressed from recombinant CHO cells; used in both clinical trials (protein, listed as Homo sapiens)
chain: AKLGAVYTEGGFVEGVNKKLGLLGDSVDIFKGIPFAAPTKALENPQPHPGWQGTLKAKNFKKRCLQATITQDSTYGDEDCLYLNIWVPQGRKQVSRDLPVMIWIYGGAFLMGSGHGANFLNNYLYDGEEIATRGNVIVVTFNYRVGPLGFLSTGDANLPGNYGLRDQHMAIAWVKRNIAAFGGDPNNITLFGESAGGASVSLQTLSPYNKGLIRRAISQSGVALSPWVIQKNPLFWAKKVAEKVGCPVGDAARMAQCLKVTDPRALTLAYKVPLAGLEYPMLHYVGFVPVIDGDFIPADPINLYANAADIDYIAGTNNMDGHIFASIDMPAINKGNKKVTEEDFYKLVSEFTITKGLRGAKTTFDVYTESWAQDPSQENKKKTVVDFETDVLFLVPTEIALAQHRANAKSAKTYAYLFSHPSRMPVYPKWVGADHADDIQYVFGKPFATPTGYRPQDRTVSKAMIAYWTNFAKTGDPNMGDSAVPTHWEPYTTENSGYLEITKKMGSSSMKRSLRTNFLRYWTLTYLALPTVTDQEATPVPPTGDSEATPVPPTGDSETAPVPPTGDSGAPPVPPTGDSGAPPVPPTGDSGAPPVPPTGDSGAPPVPPTGDSGAPPVPPTGDSGAPPVPPTGDSGAPPVPPTGDAGPPPVPPTGDSGAPPVPPTGDSGAPPVTPTGDSETAPVPPTGDSGAPPVPPTGDSEAAPVPPTDDSKEAQMPAVIRF
CFA (overall), LS Mean (BVT.BSSL-020 (infant formula)): 69.46% | CFA (overall), LS Mean Difference (rhBSSL − Placebo) (BVT.BSSL-020 (infant formula)): 2.08% | CFA (overall), Maximum (BVT.BSSL-020 (infant formula)): 89.0% | CFA (overall), Mean (SD) (BVT.BSSL-020 (infant formula)): 69.55 (14.452) % | CFA (overall), Median (BVT.BSSL-020 (infant formula)): 70.99% | CFA (overall), Minimum (BVT.BSSL-020 (infant formula)): 36.8% | CFA for C12:0 (BVT.BSSL-020 (infant formula)): 89.70% | CFA for C12:0, Difference (rhBSSL − Placebo) (BVT.BSSL-020 (infant formula)): 1.18% | CFA for C14:0 (BVT.BSSL-020 (infant formula)): 76.56% | CFA for C14:0, Difference (rhBSSL − Placebo) (BVT.BSSL-020 (infant formula)): 3.19% | CFA for C16:0 (BVT.BSSL-020 (infant formula)): 46.95% | CFA for C16:0, Difference (rhBSSL − Placebo) (BVT.BSSL-020 (infant formula)): 0.45% | CFA for C18:0 (BVT.BSSL-020 (infant formula)): 42.20% | CFA for C18:0, Difference (rhBSSL − Placebo) (BVT.BSSL-020 (infant formula)): −1.10% | CFA for C18:1 (BVT.BSSL-020 (infant formula)): 76.24% | CFA for C18:1, Difference (rhBSSL − Placebo) (BVT.BSSL-020 (infant formula)): 2.37% | CFA for C18:2 n-6 (BVT.BSSL-020 (infant formula)): 83.91% | CFA for C18:2 n-6, Difference (rhBSSL − Placebo) (BVT.BSSL-020 (infant formula)): 4.99% | CFA for C18:3 n-3 (BVT.BSSL-020 (infant formula)): 87.79% | CFA for C18:3 n-3, Difference (rhBSSL − Placebo) (BVT.BSSL-020 (infant formula)): 4.42% | CFA for C20:4 n-6 (AA) (BVT.BSSL-020 (infant formula)): 82.96% | CFA for C20:4 n-6 (AA), Difference (rhBSSL − Placebo) (BVT.BSSL-020 (infant formula)): 7.14% | CFA for C22:6 n-3 (DHA) (BVT.BSSL-020 (infant formula)): 81.15% | CFA for C22:6 n-3 (DHA), Difference (rhBSSL − Placebo) (BVT.BSSL-020 (infant formula)): 6.85% | Total Amount of Fat in Stool, Maximum [1]: 15.0 g | Total Amount of Fat in Stool, Mean (SD) [1]: 8.53 g and 8.53 (3.416) g | Total Amount of Fat in Stool, Median [1]: 8.63 g | Total Amount of Fat in Stool, Minimum [1]: 3.2 g | Coefficient of absorption of the sum of all LCPUFAs, LS mean (BVT.BSSL-020 Formula): 82.2% | Coefficient of absorption of the sum of all LCPUFAs, LS mean difference (rhBSSL-Placebo) (BVT.BSSL-020 Formula): 7.01% | Coefficient of absorption of the sum of all polyunsaturated fatty acids, LS mean (BVT.BSSL-020 Formula): 84.0% | Coefficient of absorption of the sum of all polyunsaturated fatty acids, LS mean difference (rhBSSL-Placebo) (BVT.BSSL-020 Formula): 5.05% | Coefficient of absorption of the sum of all saturated fatty acids, LS mean (BVT.BSSL-020 Formula): 61.4% | Coefficient of absorption of the sum of all saturated fatty acids, LS mean difference (rhBSSL-Placebo) (BVT.BSSL-020 Formula): 0.08% | Coefficient of absorption of the sum of all unsaturated fatty acids, LS mean (BVT.BSSL-020 Formula): 78.8% | Coefficient of absorption of the sum of all unsaturated fatty acids, LS mean difference (rhBSSL-Placebo) (BVT.BSSL-020 Formula): 3.25% | Coefficient of absorption of the sum of all LCPUFAs, LS mean (BVT.BSSL-020 and 021 Combined): 76.1% | Coefficient of absorption of the sum of all LCPUFAs, LS mean difference (rhBSSL-Placebo) (BVT.BSSL-020 and 021 Combined): 7.33% | Coefficient of absorption of the sum of all polyunsaturated fatty acids, LS mean (BVT.BSSL-020 and 021 Combined): 77.3% | Coefficient of absorption of the sum of all polyunsaturated fatty acids, LS mean difference (rhBSSL-Placebo) (BVT.BSSL-020 and 021 Combined): 5.82% | Coefficient of absorption of the sum of all saturated fatty acids, LS mean (BVT.BSSL-020 and 021 Combined): 63.8% | Coefficient of absorption of the sum of all saturated fatty acids, LS mean difference (rhBSSL-Placebo) (BVT.BSSL-020 and 021 Combined): 2.25% | Coefficient of absorption of the sum of all unsaturated fatty acids, LS mean (BVT.BSSL-020 and 021 Combined): 74.7% | Coefficient of absorption of the sum of all unsaturated fatty acids, LS mean difference (rhBSSL-Placebo) (BVT.BSSL-020 and 021 Combined): 4.22% | CFA (overall), LS Mean [2]: 68.56% | CFA (overall), LS Mean Difference (rhBSSL − Placebo) [2]: 4.86% | CFA (overall), Maximum [2]: 93.2% | CFA (overall), Mean (SD) [2]: 68.46 (15.333) % | CFA (overall), Median [2]: 75.41% | CFA (overall), Minimum [2]: 31.2% | CFA for C12:0 [2]: 87.94% | CFA for C12:0, Difference (rhBSSL − Placebo) [2]: 3.50% | CFA for C14:0 [2]: 75.49% | CFA for C14:0, Difference (rhBSSL − Placebo) [2]: 5.94* % | CFA for C16:0 [2]: 63.88% | CFA for C16:0, Difference (rhBSSL − Placebo) [2]: 4.46% | CFA for C16:1 [2]: 96.24% | CFA for C16:1, Difference (rhBSSL − Placebo) [2]: 0.45% | CFA for C18:0 [2]: 46.11% | CFA for C18:0, Difference (rhBSSL − Placebo) [2]: 3.63% | CFA for C18:1 [2]: 71.01% | CFA for C18:1, Difference (rhBSSL − Placebo) [2]: 4.77% | CFA for C18:2 n-6 [2]: 71.26% | CFA for C18:2 n-6, Difference (rhBSSL − Placebo) [2]: 6.98* % | CFA for C18:3 n-3 [2]: 64.39% | CFA for C18:3 n-3, Difference (rhBSSL − Placebo) [2]: 2.04% | CFA for C18:3 n-6 [2]: 63.94% | CFA for C18:3 n-6, Difference (rhBSSL − Placebo) [2]: 5.82% | CFA for C20:1 [2]: 52.09% | CFA for C20:1, Difference (rhBSSL − Placebo) [2]: 8.53% | CFA for C20:2 n-6 [2]: 53.09% | CFA for C20:2 n-6, Difference (rhBSSL − Placebo) [2]: 8.37* % | CFA for C20:3 n-6 (sum of C20:3 n-6 and C20:3 n-3) [2]: 67.39§ %
